The assay has as its target Bacillus pseudofirmus Mrp antiporter complex (hetero-heptamer MrpA-MrpG, one protomer) (Bacillus pseudofirmus) (UniProt Q9RGZ5). As to the kind of experiment: cryo-EM structure; purified Mrp dimer fractions in 20 mM Tris-HCl pH 8.0, 150 mM NaCl, 0.05% LMNG, 1-2 mg/ml; dimer map 2.96 Å, symmetry-expanded protomer map 2.2 Å.

Usually stoichiometry N stands for a count of units in the complex or per binding partner. The substance “Bacillus pseudofirmus Mrp antiporter complex (hetero-heptamer MrpA-MrpG, one protomer) (from UniProt Q9RGZ5 1-805; Q9RGZ4 1-144; Q9RGZ3 1-112; Q9RGZ2 1-493; Q9RGZ1 1-158; Q9RGZ0 1-91; Q9RGY9 1-119)” displayed a stoichiometry N of 2.

The record behind these values is article PMC9568556.
